Assay results: paper PMC5775257, “Binding of NUFIP2 to Roquin promotes recognition and regulation of ICOS mRNA” (Nature Communications, 2018)

T1: mouse Roquin-1 (aa 2–441) (mouse, UniProt Q4VGL6 2-441)
T1 construct: mouse Roquin-1 aa 2-441; also called Roquin (aa 2–441)
T1 sequence (looked up): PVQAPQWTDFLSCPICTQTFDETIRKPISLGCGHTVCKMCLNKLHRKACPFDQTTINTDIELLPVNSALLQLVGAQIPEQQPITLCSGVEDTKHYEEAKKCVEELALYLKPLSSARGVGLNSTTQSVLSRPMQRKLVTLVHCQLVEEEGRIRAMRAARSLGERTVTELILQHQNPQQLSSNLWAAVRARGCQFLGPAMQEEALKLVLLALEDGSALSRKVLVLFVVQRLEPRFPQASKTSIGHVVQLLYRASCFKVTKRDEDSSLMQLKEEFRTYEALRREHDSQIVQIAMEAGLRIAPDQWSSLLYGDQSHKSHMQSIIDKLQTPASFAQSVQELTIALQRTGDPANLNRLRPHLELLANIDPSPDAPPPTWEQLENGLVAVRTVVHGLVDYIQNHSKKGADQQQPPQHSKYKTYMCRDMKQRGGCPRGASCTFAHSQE

B1: mouse Fmrp (aa 1–132) (domain or fragment)
chain: not shown
notes: His6-GST cut off by PreScission protease; source: E. coli BL21Star(DE3), purified (HisTrap, GSTTrap, Superdex 75); not shown: His6-GST, N-terminal, cleaved
B2: human NUFIP2 (aa 255–411) (domain or fragment, UniProt Q7Z417 255-411, looked up)
chain: KQGLETFKPDYSEQKGNRVDGSKPIWKYETGPGGTSRGKPAVGDMLRKSSDSKPGVSSKKFDDRPKGKHASAVASKEDSWTLFKPPPVFPVDNSSAKIVPKISYASKVKENLNKTIQNSSVSPTSSSSSSSSTGETQTQSSSRLSQVPMSALKSVTS
notes: His6-SUMO cleaved off by PreScission protease; source: E. coli BL21(DE3)pRIL, purified (HisTrap, ion exchange, Superdex 75); not shown: His6-SUMO, N-terminal, cleaved

What was measured:
[1] = molecular target: B2; assay: SPR; BIACORE 3000; Roquin (aa 2–441) immobilised; 4 μM NUFIP2 (aa 255–411) injected together with 0.016, 0.063, 0.25 or 1 μM FMRP (aa 1–132); 250 mM NaCl, 0.05% Tween20, 10 mM HEPES; conditions: both partners purified
[2] = molecular target: T1, mouse Roquin-1 (aa 2–441); assay: SPR; BIACORE 3000; Roquin (aa 2–441) immobilised on CM5 chip by amine coupling; NUFIP2 (aa 255–411) injected at 0.063-4 μM, 30 μL/min, 20 °C; 150 mM NaCl, 0.05% Tween20, 10 mM HEPES; steady-state analysis; conditions: both partners purified

| Binder | binding result [1] | Kd [2] |
| --- | --- | --- |
| B1 | binds |  |
| B2 |  | 182 nM |
